Results as given in the supplement of paper PMC7125110.
± gives the standard error. Fewer inactive variants are shown than the library holds.

B1: glmS ribozyme (parent)
chain: AUAAAAGCGCCAGAACUACAGAAAUGUAGUUGACGAGGAGGAGGUUUAUCGAAUUUUCGGCGGAUGCCUCCAAA

Variants of: B1
Experiment: self-cleavage kobs at 2500 uM GlcN6P; higher = faster cleavage; RNA array
Conditions: with glucosamine-6-phosphate
In short: (§1)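 Tiles of sequenced MiSeq chips were imaged over ~14 h at 37 °C. On them, barcoded ribozyme variants had been transcribed in situ by E. coli RNA polymerase and were tracked via a hybridised Cy3 probe while glucosamine-6-phosphate (40 μM to 10 mM) in HEPES/KCl/Mg(OAc)2 buffer flowed in. Per-tile medians, normalised to baseline and to non-cleaving reference variants, were fit to one- or two-exponential decays for kobs, and weighted Michaelis–Menten fits gave kcat and KM.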

| Variant | self-cleavage kobs at 2500 uM GlcN6P [s⁻¹] |
| --- | --- |
| G9C C10U A36U A48U C71G | < 1e-05 |
| C11U G29C U31A | < 1e-05 |
| A6U G37A U49C U54A | < 1e-05 |
| A6U G37C C68U | < 1e-05 |
| G7C G29A A36U C71A | < 1e-05 |
| G7U G43C A53U A64G | < 1e-05 |
| G7U G9U U47A | < 1e-05 |
| G7C G13U U31G G37C G59A G60U | < 1e-05 |
| C10A G51A G66A C68A C70A | 7.81e-05 ± 3.1e-05 |
| G9C A42C A48C C58G C71G | < 1e-05 |
| G7A U31A G44C | < 1e-05 |
| G7A G38C A64C | < 1e-05 |
| C8U G43U G62C C68U | < 1e-05 |
| C10A G29C A42G U55C U56C C70U | < 1e-05 |
| C10U A12G A15G G29C C34A | < 1e-05 |
| C10U A12C C70A | < 1e-05 |
| G9U A39U A48U C50A U57C G66A | < 1e-05 |
| C10G G63C G66U | < 1e-05 |
| G7C C11G G37U C58U | < 1e-05 |
| C11G C50G C58A | 0.00031 ± 0.00011 |
| C10U A15G G44U C50G | < 1e-05 |
| C11A G29U C58A | < 1e-05 |
| G9C C10A G32A | < 1e-05 |
| C8U C58G C70U | < 1e-05 |
| C10G G60C C61A | < 1e-05 |
| C11U G44U U69G | < 1e-05 |
| G7A A42U | < 1e-05 |

| Variant | self-cleavage kobs at 2500 uM GlcN6P [s⁻¹] |
| --- | --- |
| C10A A12C U30A U31A | 5.52e-05 ± 2.3e-05 |
| G7C G9U G59U | < 1e-05 |
| C8U C61A C68U | < 1e-05 |
| C8U A33C U45A A52U | < 1e-05 |
| A6U C10U A12C G60A C67U | < 1e-05 |
| C10G C34U G37U A42G | < 1e-05 |
| G7U G43A U47A U57C A64U | < 1e-05 |
| C10U U31A A39U G51C | < 1e-05 |
| C8U U54G A64U U65G | < 1e-05 |
| G7U U31C A36U A39C A42G G59U G66U | < 1e-05 |
| G9U C16A A42C U54A A64G C70U | < 1e-05 |
| C10G G13C A14G U31C U47A | < 1e-05 |
| G9C C10U A15G U69G | < 1e-05 |
| C11U A12G U56C | 0.000115 ± 2.6e-05 |
| C8A U46G U55A | < 1e-05 |
| C8G A12U A39U | < 1e-05 |
| C10U C16G C61U C71U | < 1e-05 |
| A6G U31A | 0.000107 ± 3.2e-05 |
| A6U G13A G35C A52C | < 1e-05 |
| G9C A15U U47G G51C G63C | < 1e-05 |
| A6U A14G U49C | < 1e-05 |
| C8U U55G U65G | < 1e-05 |
| G7A A33U C61G C70G | < 1e-05 |
| C10G G43U U46C | < 1e-05 |
| C10U C16U G37U G38A A39G C50G A64G U65C | 0.000287 ± 0.00013 |
| G7A G13A C34U | < 1e-05 |
| A6U U31C C50A U56G | < 1e-05 |

| Variant | self-cleavage kobs at 2500 uM GlcN6P [s⁻¹] |
| --- | --- |
| A6U A39U G41C | < 1e-05 |
| G7A C50G G63C | 0.000242 ± 7.3e-05 |
| A6U G35U G51U | < 1e-05 |
| C11A A14G G40U | 5.01e-05 ± 1.9e-05 |
| A6U G32C C34G U55G U56A | < 1e-05 |
| G7U G9U U31C U56C | < 1e-05 |
| G7C U45A G51U G59U | < 1e-05 |
| A6U G32C C34U | < 1e-05 |
| C8A G35A G38A A53G | < 1e-05 |
| G7A A36G G38A U47G A53G | < 1e-05 |
| C10A G35A G40C | < 1e-05 |
| G7C G9C C61G G62U | < 1e-05 |
| A6U G44U G63C | < 1e-05 |
| C10G C11G G13U U69C C70G | < 1e-05 |
| G9U A12C A14C A48G U49A | < 1e-05 |
| C11A G51C G63U | < 1e-05 |
| G7A G44U A48G | < 1e-05 |
| G7C C16U G29U C61U | < 1e-05 |
| C8U G32U C34U C58G | < 1e-05 |
| A6U A12U U54G | 0.000203 ± 6e-05 |
| G9U U31A C67A C70U | < 1e-05 |
| C8A C10G A39C | < 1e-05 |
| G9U A33G A53C | < 1e-05 |
| G9A G13C A33C G38C C61U G63U G66C | < 1e-05 |
| C8G A12U C16U G43U | < 1e-05 |

Variants of: B1
Experiment: self-cleavage kobs at 10000 uM GlcN6P; higher = faster cleavage; RNA array
Conditions: with glucosamine-6-phosphate
In short: as §1

| Variant | self-cleavage kobs at 10000 uM GlcN6P [s⁻¹] |
| --- | --- |
| G9C C10U A36U A48U C71G | < 1e-05 |
| A6U G37C C68U | < 1e-05 |
| C10A G29C A42G U55C U56C C70U | < 1e-05 |
| G7C C11G G37U C58U | < 1e-05 |
| G7A A42U | < 1e-05 |
| C8A U46G U55A | < 1e-05 |
| A6G U31A | 0.000258 ± 6e-05 |
| C8U U55G U65G | < 1e-05 |
| C10U C16U G37U G38A A39G C50G A64G U65C | 0.0013 ± 0.0004 |
